In US20250368729A1 one finds EC50 data, which are given here for four molecules.

The target of test [1] is synthetic amyloid-like fibrils of recombinant amyloidogenic λ6 variable domain protein (rVλ6Wil). Nature of the test: EuLISA, fibrils coated on plate (FIG. 13B).
The target is the same in test [2]. Nature of the test: EuLISA, fibrils coated on plate (FIG. 13A).

B1: humanized antibody VH6/VL3 (antibody, V domains shown)
VH: QVQLQESGPGLVKPSETLSLTCTVSGFSLSSYGVSWVRQPPGKGLEWLGVIWGDGSTNYHPNLMSRLSISKDTSKNQFSLKLSSVTAADTATYYCVTLDYWGQGTSVTVSS
VL: DVVMTQSPLSLPVTLGQPASISCRSSQSLVHRNGNTYLHWYLQRPGQSPRLLIYKVSNRFSGVPDRFSGSGSGTDFTLKISRVEAEDVGLYFCFQTTYVPNTFGGGTKLEIK
On to B1, for which the EC50 in test [1] and in test [2] was 95 nM in each case.

B2: humanized antibody VH8/VL4 (antibody, V domains shown)
VH: QVQLQESGPGLVKPSETLSLTCTVSGFSLSSYGVSWIRQPPGKGLEWIGVIWGDGSTNYHPNLMSRVTISKDTSKSQFSLKLSSVTAADTAVYYCVTLDYWGQGTSVTVSS
VL: DVVMTQSPLSLPVTLGQPASISCRSSQSLVHRNGNTYLHWFQQRPGQSPRLLIYKVSNRFSGVPDRFSGSGSGTDFTLKISRVEAEDVGVYFCFQTTYVPNTFGGGTKLEIK
For the molecule B2, the EC50 in test [2] turned out to be 16 nM.

B3: humanized antibody VH10/VL4 (antibody, V domains shown)
VH: QVQLQESGPGLVKPSETLSLTCTVSGFSLSSYGVSWIRQPPGKGLEWLGVIWGDGSTNYHPNLMSRLSISKDTSKSQVLLKLSSVTAADTAVYYCVTLDYWGQGTSVTVSS
VL: DVVMTQSPLSLPVTLGQPASISCRSSQSLVHRNGNTYLHWFQQRPGQSPRLLIYKVSNRFSGVPDRFSGSGSGTDFTLKISRVEAEDVGVYFCFQTTYVPNTFGGGTKLEIK
With B3, the EC50 in test [2] was determined as 17 nM.

B4: humanized antibody VH7/VL4 (antibody, V domains shown)
VH: QVQLQESGPGLVKPSETLSLTCTVSGFSLSSYGVSWIRQPPGKGLEWIGVIWGDGSTNYHPNLMSRVTISKDTSKNQVLLKLSSVTAADTAVYYCVTLDYWGQGTSVTVSS
VL: DVVMTQSPLSLPVTLGQPASISCRSSQSLVHRNGNTYLHWFQQRPGQSPRLLIYKVSNRFSGVPDRFSGSGSGTDFTLKISRVEAEDVGVYFCFQTTYVPNTFGGGTKLEIK
In the case of B4, the EC50 in test [2] was found to be 75 nM.

As a reminder, the EC50 is the concentration that produces a half-maximal response.
